This passage reports Kd results from US20200147230A1.

One experiment addresses human nucleolin (human) (UniProt P19338). Nature of the experiment: fixed cell assay on fixed, permeabilised Raji cells; negative control, ambiguous fit.
The target of experiment [1] is murine nucleolin (in Colon 26 / C26 murine colon carcinoma cells) (murine) (UniProt P09405). Nature of the experiment: fixed cell assay on fixed, permeabilised murine C26 cells; negative control.
Sequence of UniProt P09405 (P09405 2-707): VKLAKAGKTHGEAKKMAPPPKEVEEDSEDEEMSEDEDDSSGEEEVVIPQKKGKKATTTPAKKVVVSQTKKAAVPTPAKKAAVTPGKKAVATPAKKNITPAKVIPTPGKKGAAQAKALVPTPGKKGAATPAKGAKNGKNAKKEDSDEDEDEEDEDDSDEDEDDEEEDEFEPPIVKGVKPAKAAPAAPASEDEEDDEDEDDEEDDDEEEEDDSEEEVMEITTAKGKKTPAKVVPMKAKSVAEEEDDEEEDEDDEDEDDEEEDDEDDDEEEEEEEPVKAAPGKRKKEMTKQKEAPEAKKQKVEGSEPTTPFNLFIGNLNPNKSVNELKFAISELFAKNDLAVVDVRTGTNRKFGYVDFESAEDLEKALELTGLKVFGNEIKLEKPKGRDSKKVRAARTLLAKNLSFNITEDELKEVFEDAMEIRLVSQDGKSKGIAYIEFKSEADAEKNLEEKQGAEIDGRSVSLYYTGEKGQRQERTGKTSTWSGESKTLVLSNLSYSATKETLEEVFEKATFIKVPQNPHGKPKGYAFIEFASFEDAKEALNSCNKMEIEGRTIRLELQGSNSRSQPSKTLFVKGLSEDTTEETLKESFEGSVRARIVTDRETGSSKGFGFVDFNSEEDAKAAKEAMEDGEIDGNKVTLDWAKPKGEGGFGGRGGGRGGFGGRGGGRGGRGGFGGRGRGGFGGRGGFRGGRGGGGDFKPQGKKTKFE

Sequence of UniProt P19338 (P19338 2-710 limits assumed): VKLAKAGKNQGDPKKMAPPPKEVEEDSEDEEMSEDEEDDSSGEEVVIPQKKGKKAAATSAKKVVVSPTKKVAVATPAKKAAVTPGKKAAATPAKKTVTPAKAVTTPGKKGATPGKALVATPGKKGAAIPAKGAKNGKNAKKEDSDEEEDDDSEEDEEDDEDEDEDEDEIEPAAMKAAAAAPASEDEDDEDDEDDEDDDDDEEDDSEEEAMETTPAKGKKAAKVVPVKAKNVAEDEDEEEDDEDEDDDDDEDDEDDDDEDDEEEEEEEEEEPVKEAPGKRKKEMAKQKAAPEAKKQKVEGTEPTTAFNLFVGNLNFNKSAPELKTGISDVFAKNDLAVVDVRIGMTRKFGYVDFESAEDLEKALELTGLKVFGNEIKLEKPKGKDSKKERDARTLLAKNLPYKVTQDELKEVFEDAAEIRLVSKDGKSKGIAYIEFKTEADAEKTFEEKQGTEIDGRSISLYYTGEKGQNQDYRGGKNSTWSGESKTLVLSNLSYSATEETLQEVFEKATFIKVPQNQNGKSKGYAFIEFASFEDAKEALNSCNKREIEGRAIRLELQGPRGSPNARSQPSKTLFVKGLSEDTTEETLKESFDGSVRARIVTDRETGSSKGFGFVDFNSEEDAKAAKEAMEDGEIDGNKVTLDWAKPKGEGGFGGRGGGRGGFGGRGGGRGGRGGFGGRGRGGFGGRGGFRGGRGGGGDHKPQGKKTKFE

The Kd is the constant that tells how readily two partners part at equilibrium. A lower Kd goes with higher affinity. Turning to IgG1 isotype control antibody, the Kd worked out at 1.3 µM in the experiment with human nucleolin (human) and 33.3 µM in experiment [1].
